The test system of test [1] is mouse neutrophils. In words: Chemotaxis assay of mouse neutrophils to mC5a. In kind it is cell-based. As to the method:
Five hours later, mice were killed and the peritoneal cavity was lavaged four times with 10 mL DPBS. Fluids were centrifuged and residual red blood cells removed by a hypotonic lysis step. Remaining peritoneal cells were washed and resuspended in HBSS.
After neutrophil isolation, cells were fluorescein-labeled with BCECF (2′,7′-bis [2-carboxyethyl]-5-[and 6]-carboxy-fluorescein acetoxymethyl ester) (Molecular Probes, Eugene, Oreg.). Labeled neutrophils (5×10^6 cells/mL) were then loaded into the upper chambers of 96-well minichambers (NeuroProbe, Cabin John, Md.). […] The upper and lower chambers were separated by a polycarbonate membrane of 3 μm porosity. Minichambers were incubated for 60 min at 37° C. The number of cells migrating through polycarbonate filters to the lower surface was measured by cytofluorometry (Cytofluor II, PerSeptive Biosystems, Framingham, Mass.). For each measurement, quadruplicate samples were used.

A further test concerns the target T1, mouse C5a receptor (mouse, UniProt P30993 1-351).
T1 construct: whole, on cells
T1 sequence (looked up): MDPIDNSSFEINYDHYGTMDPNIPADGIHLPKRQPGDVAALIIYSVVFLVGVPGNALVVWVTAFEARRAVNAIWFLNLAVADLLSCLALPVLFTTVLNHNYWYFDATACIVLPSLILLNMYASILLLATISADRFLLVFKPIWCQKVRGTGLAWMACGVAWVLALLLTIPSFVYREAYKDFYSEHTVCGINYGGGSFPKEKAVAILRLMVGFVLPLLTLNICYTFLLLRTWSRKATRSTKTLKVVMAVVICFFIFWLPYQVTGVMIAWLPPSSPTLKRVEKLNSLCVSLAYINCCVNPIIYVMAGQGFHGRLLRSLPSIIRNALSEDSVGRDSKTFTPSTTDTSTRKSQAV
Put plainly: competition of unlabeled mC5a with 100 pM 125I-mC5a on mouse peritoneal neutrophils, 20 min at 4 C. As to the method: Isolated neutrophils were incubated for 1 h at 4° C. in binding buffer (HBSS without Ca^2+ and containing 1% BSA) to block nonspecific surface binding sites. […] After an incubation interval of 20 min at 4° C., cell suspensions were layered over 20% sucrose and sedimented by centrifugation at 11,000 g (Beckman Microfuge B, Palo Alto, Calif.) for 2 min. […] Binding affinities (K_d values) of C5a were calculated in the conventional manner (Chenoweth et al., (1978) *Proc. Natl. Acad. Sci. USA* 75,3943-3947). […]
Recent reports have described CSaRa binding affinities to rat and human neutrophils (Wong et al., (1998) *J. Med. Chem.* 41,3417-3425; Short et al., (1999) *Br. J. Pharmacol.* 128,511-514). To assess whether C5aRa also binds to mouse neutrophils, competitive binding studies using C5aRa and mC5a were undertaken.

The target of test [2] is T2, C5aR on mouse peritoneal neutrophils (Mus musculus, UniProt P30993).
T2 construct: Mice were injected i.p. with 2.5 mL sterile 3% thioglycolate medium (DIFCO Laboratories, Detroit, Mich.) for harvesting of mouse neutrophils; endogenous in cells; host or cells: mouse peritoneal neutrophils (thioglycolate-elicited, whole cells)
T2 sequence (P30993 1-351): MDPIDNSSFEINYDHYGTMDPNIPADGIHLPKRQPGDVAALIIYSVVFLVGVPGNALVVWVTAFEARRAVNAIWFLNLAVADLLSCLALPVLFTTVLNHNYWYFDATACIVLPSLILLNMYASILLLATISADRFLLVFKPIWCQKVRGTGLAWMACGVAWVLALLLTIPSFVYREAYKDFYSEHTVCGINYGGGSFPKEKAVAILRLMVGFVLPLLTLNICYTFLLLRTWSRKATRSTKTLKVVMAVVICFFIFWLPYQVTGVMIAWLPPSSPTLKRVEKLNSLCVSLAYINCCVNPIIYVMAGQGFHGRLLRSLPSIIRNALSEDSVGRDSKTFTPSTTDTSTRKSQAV
Put plainly: Competitive binding of 125I-mC5a to mouse peritoneal neutrophils. Conditions: recombinant protein. As to the method:
(§1) Mice were injected i.p. with 2.5 mL sterile 3% thioglycolate medium (DIFCO Laboratories, Detroit, Mich.) for harvesting of mouse neutrophils (Ajuebor et al., (1999) J. Immunol. 162,1685-1691). Five hours later, mice were killed and the peritoneal cavity was lavaged four times with 10 mL DPBS. Fluids were centrifuged and residual red blood cells removed by a hypotonic lysis step. Remaining peritoneal cells were washed and resuspended in HBSS. Aliquots of cells were stained with Diff-Quik Stain (Dade International, Miami, Fla.) and examined for neutrophil purity (>95%) and viability (>97%) by trypan blue exclusion (Fildes et al., (1998) J. Trauma 45,479-484).
For binding studies, mC5a was labeled with […], using the chloramine T-based protocol (Bennett et al., (1997) Methods Enzymol. 288,134-148) with gentle oxidation, which preserves chemotactic activity of mC5a for mouse neutrophils. Isolated neutrophils were incubated for 1 h at 4° C. in binding buffer (HBSS without Ca^2+ and containing 1% BSA) to block nonspecific surface binding sites. […] Binding affinities (Kd values) of C5a were calculated in the conventional manner (Chenoweth et al., (1978) Proc. Natl. Acad. Sci. USA 75,3943-3947). […]

Test [3] deals with mouse neutrophils. In words: Neutrophil oxidative burst (H2O2 generation, PMA-stimulated). It is filed as cell-based. The method, then: as §1
H2O2 generation was determined in the presence of 1 mM sodium azide. As indicated, mouse neutrophils (2×10^6 cells/mL) were pretreated with mC5a (10 nM) for 60 min at 37° C. in the presence or absence of different amounts of C5aRa. To stimulate neutrophils, cells were then incubated with PMA (25 ng/mL) for an additional 10 min. The reaction was stopped by addition of 0.1 mL trichloroacetic acid (50% v/v), then ferrous ammonium sulfate (1.5 mM) and potassium thiocyanate (0.25 M) were added to supernatant fluids. The absorbance of the ferrithiocyanate complex was measured at 480 nm and compared with a standard curve generated from dilutions of reference solutions of H2O2.

The term Kd denotes the concentration at which binding is half-saturated. Low values mean a tighter complex, high ones a looser complex.

For “^125I-C5aRa: C5aRa labeled with 125I by the chloramine T method (FXPXWR; non-natural residues; cyclised or stapled) [reference compound]”, in the test with mouse neutrophils [1] (10 nM 125I-C5aRa, mC5a 1-100 nM), the “chemotactic response to mC5a in presence of radiolabeled antagonist” value is “virtually completely suppressed”.

B1: recombinant mouse C5a (ligand, UniProt P06684 679-755, looked up)
chain: NLHLLRQKIEEQAAKYKHSVPKKCCYDGARVNFYETCEERVARVTIGPLCIRAFNECCTIANKIRKESPHKPVQLGR
modifications: 125I label (chloramine T) on the tracer form only; the competitor was unlabeled
notes: domain: C5a; Expressed in E. coli BL21(DE3) pLysS from pET 15b (NdeI/BamHI) and purified over a Ni2+ column; C5a is only a fragment of it; also called mC5a; recombinant mouse (m) C5a
In the case of B1, in the test with mouse C5a receptor, the Kd is ~3 nM.

B2: mC5a: recombinant mouse C5a expressed in BL21 (DE3) pLysS cells, purified over a Ni2+ column (protein)
chain: NLHLLRQKIEEQAAKYKHSVPKKCCYDGARVNFYETCEERVARVTIGPLCIRAFNECCTIANKIRKESPHKPVQLGR
Take B2: in the test on mouse neutrophils [1] (10 nM), the “chemotactic response evoked by the substance alone” value is “robust chemotactic response”. The “biological (chemotactic) activity” value with mouse neutrophils [1] (recombinant protein) was “had biological (chemotactic) activity”. Moreover, the “binding to mouse neutrophils” value in test [2] is on record as “high-affinity binding”. Besides, the “basal H2O2 production vs ctrl cells” value with mouse neutrophils [3] (10 nM alone, 60 min at 37° C., no PMA) is reported as “neither mC5a alone nor C5aRa alone significantly altered”. For the same molecule, the “PMA-stimulated H2O2 production after exposure to mC5a” value with mouse neutrophils [3] (10 nM mC5a 60 min, absence of C5aRa, then PMA 25 ng/mL) is reported as “completely abolished”.

For the origin of these results see patent publication US7455837B2, “Compositions and methods for the diagnosis and treatment of sepsis” (The Regents of the University of Michigan, priority 2002, dated 2008).
